Source: article PMC4117426, “SlmA Antagonism of FtsZ Assembly Employs a Two-pronged Mechanism like MinCD”
Substitutions are numbered along the chain they refer to.

How the values were obtained:
Details in all cases: protein: recombinant; tags: N-terminal 6xHis; chain copies: 4; blunt
6xHis-SlmA-R73D = biological target: T1, 6xHis-SlmA-R73D (Escherichia coli, UniProt P0C093 1-198, R73D); assay: BLI; 4 uM SlmA; binds like WT; BLI in 1x Pol buffer: 50 mM HEPES-NaOH pH 8.0, 200 mM KCl, 10 mM MgCl2, room temperature; 50 nM biotinylated SBS17 on streptavidin tips
T1 sequence: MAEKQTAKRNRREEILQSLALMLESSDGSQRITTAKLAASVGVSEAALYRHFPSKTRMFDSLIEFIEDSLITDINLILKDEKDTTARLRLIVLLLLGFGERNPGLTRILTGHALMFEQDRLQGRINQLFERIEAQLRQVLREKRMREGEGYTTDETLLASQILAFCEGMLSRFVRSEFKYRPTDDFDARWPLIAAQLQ

6xHis-SlmA-F65A = biological target: T2, 6xHis-SlmA-F65A (Escherichia coli, UniProt P0C093 1-198, F65A); assay: as above
T2 sequence: T1 sequence with F65A, D73R

6xHis-SlmA WT = biological target: T3, 6xHis-SlmA WT (Escherichia coli, UniProt P0C093 1-198); assay: BLI; kon 3.24e4 1/(M*s), koff 2.04e-3 1/s, R2 0.98; BLI in 1x Pol buffer: 50 mM HEPES-NaOH pH 8.0, 200 mM KCl, 10 mM MgCl2, room temperature; 50 nM biotinylated SBS17 on streptavidin tips
T3 sequence: T1 sequence with D73R

6xHis-SlmA-T33A = biological target: T4, 6xHis-SlmA-T33A (Escherichia coli, UniProt P0C093 1-198, T33A); assay: BLI; 4 uM SlmA; BLI in 1x Pol buffer: 50 mM HEPES-NaOH pH 8.0, 200 mM KCl, 10 mM MgCl2, room temperature; 50 nM biotinylated SBS17 on streptavidin tips
T4 sequence: T1 sequence with T33A, D73R

B1: biotinylated SBS17-30mer (dsDNA)
DNA 1: CAAAAGTAAGTAAATGGTCACTAACGTTGA
DNA 2: TCAACGTTAGTGACCATTTACTTACTTTTG
For B1, the binding result (6xHis-SlmA-R73D) was “binds”, the binding result (6xHis-SlmA-F65A) was “binds” and the Kd (6xHis-SlmA WT) was 62.9 nM. B1: no binding (6xHis-SlmA-T33A).
